Results on two molecules are retold here after US20240082183A1, “METHODS FOR PREVENTING OR TREATING CONDITIONS RELATED TO T CELL MEDIATED INTESTINAL DISORDERS” (The Regents of the University of Michigan, priority 2021, published 2024).

For test [1], the system named is primary colonic epithelial cells (PCECs). Kind of test: Apoptosis of pre-treated PCECs induced by perforin and Granzyme B. Format: cell-based, C57BL/6 mice. The conditions noted are these: pre-treated 2 hours, then perforin and Granzyme B 4 hours. As for the experimental part:
Cell culture: C57BL/6 primary colonic epithelial cells (PCEC, C57-6047, Cell Biologics, Chicago, IL) were cultured in compete epithelial growth medium supplemented with insulin-transferrin-selenium, epidermal growth factor, glutamine, antibiotics, antimycotics and fecal bovine serum (#M6621, Cell Biologics). Cells were routinely tested for mycoplasma contamination using MycoAlert (#LT07-318, Lonza, Switzerland). Cells were treated with Mouse active perforin (#APB317Mu01, Cloud-Clone Corp., Katy, TX) and recombinant mouse Granzyme B (#140-03, PeproTech, Rocky Hill, NJ) for 4 to 6 hours in indicated concentrations following manufacturer's recommendations. Cells were incubated with GDF-15 (#8944-GD-025, 500 pg/mL, R&D Systems, Minneapolis, MN), Tiron (#172553, 10 mM, Sigma-Aldrich, St. Louis, MO), Trolox (#648471, 0.5 mM, Sigma-Aldrich), 4-Octyl itaconate (#SML2338, 0.1 mM, Sigma-Aldrich) and NAD (#N8285, 1 mM, Sigma-Aldrich).

In test [2] the target is T1, SDHA (Mus musculus, UniProt Q8K2B3). Kind of test: SDHA cleavage assay, isolated mitochondria from IECs. Format: biochemical. The conditions noted are these: ex vivo. On the set-up: 75 ug Isolated mitochondria in 25 ul EDB buffer; from tissue; host or cells: mitochondria isolated from mouse intestinal epithelial cells. The procedure: (§1) SDHA cleavage assay: 75 ug Isolated mitochondria in 25 ul EDB buffer (10 mM HEPES, 50 mM NaCl, 2 mM MgCl2, 5 mM EGTA and 1 mM DTT) were incubated with 75 ng mouse Granzyme B at 37 degrees and then separated by SDS-PAGE^70. Mouse recombinant SDHA protein with His Tag (LS-G26030, LSBio, Seattle, WA) and mouse recombinant SDHB protein with His Tag (LS-G26026, LSBio) in EDB buffer (25 ug in 8.3 ul) were incubated with 25 ng mouse Granzyme B at 37 degrees for 90 minutes. Proteins were then separated by SDS-PAGE and blotted with anti-His Tag antibody (LS-C60077, 1:1000, LSBio) and anti-SDHA (#ab139181, 1:1000, Abcam).

Test [3] deals with T1, SDHA. Put plainly: SDHA cleavage assay, cell free, recombinant SDHA. Format: biochemical. On the set-up: purchased LSBio LS-G26030. The note with it: 90 minutes. As for the experimental part: as §1
In another test the target is T2, mutated SDHA protein (Mus musculus, UniProt Q8K2B3, D241A).
T2 construct: host or cells: E. coli BL21 Star (DE3)
Kind of test: GzmB treatment of SDHA mutated at the putative cleavage site. Format: biochemical. The conditions noted are these: 6 hours. The procedure: Generation of normal SDHA protein and mutated SDHA protein: Target DNA sequence of mouse normal SDHA and mutated SDHA was optimized and synthesized (GenScript). The synthesized sequence was cloned into vector pET-30a(+) with His tag for protein expression in E. coli. E. coli strain BL21 Star™(DE3) was transformed with recombinant plasmid. A single colony was inoculated into LB medium containing related antibiotic; culture was incubated in 37° C. at 200 rpm and then induced with IPTG. SDS-PAGE was used to monitor the expression. Recombinant BL21 Star™ (DE3) stored in glycerol was inoculated into TB medium containing related antibiotic and cultured at 37° C. When the OD600 reached about 1.2, cell culture was induced with IPTG at 15° C./16 h. Cells were harvested by centrifugation. Cell pellets were resuspended with lysis buffer followed by sonication. The precipitate after centrifugation was dissolved using denaturing agent. Target protein was obtained by one-step purification using Ni column. Target protein was sterilized by 0.22 μm filter before stored in aliquots. The concentration was determined by Bradford protein assay with BSA as standard. The protein purity and molecular weight were determined by standard SDS-PAGE along with Western blot confirmation. […]

The next test deals with T3, Recombinant SDHB (Mus musculus, UniProt Q9CQA3).
T3 construct: purchased LSBio LS-G26026
T3 sequence (Q9CQA3 31-282): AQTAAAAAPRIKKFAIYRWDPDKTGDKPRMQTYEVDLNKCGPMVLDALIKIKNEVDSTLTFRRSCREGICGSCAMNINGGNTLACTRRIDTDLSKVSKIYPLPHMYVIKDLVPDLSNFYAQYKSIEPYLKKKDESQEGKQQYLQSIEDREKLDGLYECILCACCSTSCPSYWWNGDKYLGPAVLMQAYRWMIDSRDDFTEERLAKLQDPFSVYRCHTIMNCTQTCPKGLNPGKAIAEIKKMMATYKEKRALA
Put plainly: SDHA cleavage assay, cell free, recombinant SDHB control. Format: biochemical. The note with it: 90 minutes. The procedure: as §1

T1 sequence (Q8K2B3 43-664): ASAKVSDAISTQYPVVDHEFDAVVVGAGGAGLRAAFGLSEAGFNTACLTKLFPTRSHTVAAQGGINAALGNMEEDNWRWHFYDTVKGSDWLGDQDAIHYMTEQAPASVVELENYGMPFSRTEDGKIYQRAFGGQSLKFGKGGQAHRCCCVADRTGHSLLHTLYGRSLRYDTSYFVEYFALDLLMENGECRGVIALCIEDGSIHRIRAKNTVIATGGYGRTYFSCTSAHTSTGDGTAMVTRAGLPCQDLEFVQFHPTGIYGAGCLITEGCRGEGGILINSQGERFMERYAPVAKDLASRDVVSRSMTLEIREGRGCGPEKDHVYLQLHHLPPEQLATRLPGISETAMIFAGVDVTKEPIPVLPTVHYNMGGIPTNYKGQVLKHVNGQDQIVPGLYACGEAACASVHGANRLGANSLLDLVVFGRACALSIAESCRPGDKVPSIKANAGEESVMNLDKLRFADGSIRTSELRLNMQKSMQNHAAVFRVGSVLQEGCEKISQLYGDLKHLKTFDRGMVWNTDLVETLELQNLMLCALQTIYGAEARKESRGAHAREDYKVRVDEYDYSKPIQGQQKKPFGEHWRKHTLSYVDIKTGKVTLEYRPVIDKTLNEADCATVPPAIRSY
T2 sequence (Q8K2B3 43-664 D241A): as the sequence (Q8K2B3 43-664) above, with D199A counted along it

B1: GDF15: growth and differentiation factor15 that promotes the tissue tolerance (protein, UniProt Q99988 195-308, looked up)
Growth/differentiation factor …: ARARNGDHCPLGPGRCCRLHTVRASLEDLGWADWVLSPREVQVTMCIGACPSQFRAANMHAQIKTSLHRLKPDTVPAPCCVPASYNPMVLIQKTDTGVSLQTYDDLLAKDCHCI
On to B1, for which the “apoptosis of PCECs induced by GranzymeB and perforin” value in test [1] is “did not reduce apoptosis”.

B2: GzmB: recombinant mouse Granzyme B (protein)
chain: IIGGHEVKPHSRPYMALLSIKDQQPEAICGGFLIREDFVLTAAHCEGSIINVTLGAHNIKEQEKTQQVIPMVKCIPHPDYNPKTFSNDIMLLKLKSKAKRTRAVRPLNLPRRNVNVKPGDVCYVAGWGRMAPMGKYSNTLQEVELTVQKDRECESYFKNRYNKTNQICAGDPKTKRASFRGDSGGPLVCKKVAAGIVSYGYKDGSPPRAFTKVSSFLSWIKKTMKSS
On to B2, for which the “proteolysis of SDHA in isolated mitochondria” value with SDHA [2] is “caused proteolysis of SDHA”. For the same molecule, the “proteolysis of recombinant SDHA” value with SDHA [3] is reported as “direct proteolysis”. The “proteolysis of mutated SDHA (Ile-Glu-Asp-Gly to Ile-Glu-Ala-Gly)” value in the test with mutated SDHA protein is on record as “prevented proteolysis”. Moreover, in the test with Recombinant SDHB, the “proteolysis of recombinant SDHB” value was “not SDHB”.
